Results on one molecule are retold here after article PMC10444775 (Scientific Reports, 2023).

This experiment deals with SARS-CoV-2 PreS Spike ECD protein, biotinylated via a C-terminal Avi tag (SARS-CoV-2, Wuhan wild type, K986P | V987P | 682-685 RRAR to GSAS, biotin on the Avi tag). The experiment in a line: SPR. The note with it: both partners purified.

B1: 7A9 VHH (VHH)
VHH: QVQLVESGGGLVQAGGSLRLSCSASGGTASRSAMGWFRQAPGKEREFVAGISRRNSGSTYVADSYEDSVKGRFTISRDNAKNTIYLQMNSLKPEDTAVYYCAAEPTLGWYVPRRSVEYEYWGQGTQVTVSS
notes: also called VHH 7A9; 7A9 VHH monomer; source: ExpiCHO, transiently transfected, purified
Molecule B1 showed a Kd of 0.22 nM.
